In assay [1] the target is T1, CypA domain of Macaca fascicularis TRIMCyp2 (Mafa TRIMCyp2) (Macaca fascicularis).
T1 construct: Cyp 54, 66, 69 and 143 are TRIMCyp 357, 369, 372 and 446. numbers count on: CypA; Natural allele; also called Mafa TCyp2; Mafa Cyp; source: E. coli BL21 (DE3), purified (Ni-NTA, gel filtration)
In words: ITC; MicroCal ITC200; cyclophilin (typical concentration 1.4 mM) in the syringe, capsid (typical concentration 120 µM) in the cell; 50 mM KPO4 pH 7.4, 100 mM NaCl, 1 mM DTT; 15°C; one-state model. Particulars: both partners purified. Background: Isothermal titration calorimetry measures the heat released or taken up as one component is titrated into another.

The target in assay [2] is T2, CypA domain of Mafa TRIMCyp2 with Cyp K143E (K446E in TRIMCyp) (Macaca fascicularis).
T2 construct: As m1 but with glutamate at Cyp 143 (the residue of CypA and of Mamu TRIMCyp); also called Mafa TCyp2 K143E; K143E mutant; source: E. coli BL21 (DE3), purified (Ni-NTA, gel filtration), as per the wild-type protein
The description is as above. Particulars: both partners purified.

B1: FIV capsid N-terminal domain (domain or fragment)
chain: PIQTVNGVPQYVALDPKMVSIFMEKAREGLGGEEVQLWFTAFSANLTPTDMATLIMAAPGCAADKEILDESLKQLTAEYDRTHPPDAPRPLPYFTAAEIMGIGLTQEQQAEARFAPARMQCRAWYLEALGKLAAIKAKS
modifications: Unmodified wild-type domain. Strain and limits are not printed: the Petaluma isolate is assumed. The start is the capsid p24 N-terminus (136); the end is set by homology to HIV-1 CA-N 1-146 (pdb 2X83)
What is called Kd is a measure of binding affinity in units of concentration. High values mean weaker binding, low ones tighter binding. As to B1, the dissociation constant Kd in assay [1] is 27 µM; in assay [2], 15 µM.

Source of the values: paper PMC2924388, “Conformational Adaptation of Asian Macaque TRIMCyp Directs Lineage Specific Antiviral Activity” (PLoS Pathogens, 2010).
